Test [1] has as its target endogenous rat PP1γ (rat (endogenous in primary hippocampal neurons)) (UniProt P63088). The test can be described thus: proximity ligation; PLA in fixed primary rat hippocampal neurons with Tau7 and a PP1γ-specific antibody; puncta per area of Tau12 staining; n = 3; untransduced neurons for endogenous tau. Also noted: unit not given here.
For test [2], the target named is endogenous rat PP1 (detected with an antibody that recognizes all PP1 isoforms) (rat (endogenous in primary hippocampal neurons)) (UniProt P62138). The test can be described thus: proximity ligation; PLA in fixed primary rat hippocampal neurons (DIV 8) with Tau7 and a pan-PP1 antibody; puncta per area of Tau12 (human tau) staining; n = 3; untransduced neurons for endogenous tau. Also noted: unit not given here.
Chain of UniProt P62138 (P62138 whole entry, canonical isoform): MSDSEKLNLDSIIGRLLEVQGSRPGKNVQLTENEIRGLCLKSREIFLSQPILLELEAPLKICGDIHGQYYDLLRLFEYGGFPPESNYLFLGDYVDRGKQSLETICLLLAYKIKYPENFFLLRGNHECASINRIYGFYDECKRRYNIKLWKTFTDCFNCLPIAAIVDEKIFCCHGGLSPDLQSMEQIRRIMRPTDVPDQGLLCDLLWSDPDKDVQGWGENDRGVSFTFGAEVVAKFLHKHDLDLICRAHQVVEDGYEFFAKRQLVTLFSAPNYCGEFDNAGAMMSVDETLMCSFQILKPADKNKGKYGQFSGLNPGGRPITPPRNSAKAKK

Chain of UniProt P63088 (P63088 whole entry, canonical isoform): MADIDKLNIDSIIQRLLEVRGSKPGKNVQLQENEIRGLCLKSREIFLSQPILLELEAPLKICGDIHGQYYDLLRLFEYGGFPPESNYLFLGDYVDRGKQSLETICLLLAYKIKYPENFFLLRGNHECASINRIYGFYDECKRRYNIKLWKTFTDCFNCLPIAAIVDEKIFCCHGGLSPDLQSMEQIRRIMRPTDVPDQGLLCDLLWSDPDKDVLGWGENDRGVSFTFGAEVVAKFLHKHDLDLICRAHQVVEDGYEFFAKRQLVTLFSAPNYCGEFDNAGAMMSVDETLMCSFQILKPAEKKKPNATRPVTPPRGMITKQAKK

For “P301L mutant human tau (C-terminally FLAG-tagged) expressed by lentivirus in rat hippocampal neurons (natural protein)”, the PLA puncta per area of Tau12 staining is 28 in test [1] and 67.3 in test [2].
The matching figures for “R5L mutant human tau (C-terminally FLAG-tagged) expressed by lentivirus in rat hippocampal neurons (natural protein)”: 16.2 and 31.3.
On to “wild-type human tau (C-terminally FLAG-tagged) expressed by lentivirus in rat hippocampal neurons (natural protein)”, for which the PLA puncta per area of Tau12 staining stood at 11.3 in test [1] and 23.1 in test [2].

The record behind these values is article PMC8580143.
